Where a chain is given by its changes, count along the chain named. No end group written: not given here.
Assays:
[1] = biological target: clientized Thr1273Glu SARS-CoV-2 S tail heptapeptide (1267Gly-Val-Lys-Leu-His-Tyr-Glu1273) (SARS-CoV-2); test: BLI; […]; pH 6.5 ([…]; 25 °C; Octet RED96; […]
[2] = biological target: wild-type SARS-CoV-2 S tail heptapeptide (1267Gly-Val-Lys-Leu-His-Tyr-Thr1273) (SARS-CoV-2); test: BLI; […]; pH 6.5 ([…]; 25 °C; Octet RED96; […]
[3] = biological target: T1, αWD40 Arg300Ala mutant (Schizosaccharomyces pombe, UniProt Q96WV5, R300A); test: biochemical; format: binding, S. pombe; settings: pH 6.5
T1 construct: strep-tag (C); made in house; host or cells: Expi293 cells
T1 sequence (Q96WV5 1-327 R300A limits assumed): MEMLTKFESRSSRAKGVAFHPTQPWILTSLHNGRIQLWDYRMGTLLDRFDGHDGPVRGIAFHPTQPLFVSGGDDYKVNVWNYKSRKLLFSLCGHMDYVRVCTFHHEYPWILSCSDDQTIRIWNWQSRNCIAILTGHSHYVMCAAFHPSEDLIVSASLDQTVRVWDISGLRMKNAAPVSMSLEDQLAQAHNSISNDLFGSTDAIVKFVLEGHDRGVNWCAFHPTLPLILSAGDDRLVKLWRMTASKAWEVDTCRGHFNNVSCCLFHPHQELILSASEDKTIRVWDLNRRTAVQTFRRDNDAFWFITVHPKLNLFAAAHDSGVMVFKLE

[4] = biological target: T2, β‘WD40 domain (β‘-COPI) (Saccharomyces cerevisiae, UniProt P41811); test: biochemical; format: binding, S. cerevisiae; settings: pH 6.5
T2 construct: strep-Hisx6-SUMO (N, cleaved yes); made in house; host or cells: E. coli BL21(DE3)pLysS
T2 sequence (P41811 1-304 limits assumed): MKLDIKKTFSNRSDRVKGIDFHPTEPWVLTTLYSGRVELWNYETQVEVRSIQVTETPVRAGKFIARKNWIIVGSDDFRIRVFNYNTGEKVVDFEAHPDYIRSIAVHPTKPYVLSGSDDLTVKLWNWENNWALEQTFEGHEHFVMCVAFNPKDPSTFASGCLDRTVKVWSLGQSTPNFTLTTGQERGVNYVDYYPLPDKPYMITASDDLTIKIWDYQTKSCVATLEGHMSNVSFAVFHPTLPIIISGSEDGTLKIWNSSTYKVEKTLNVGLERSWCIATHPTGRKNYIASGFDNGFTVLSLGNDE

[5] = biological target: T3, αWD40 Arg13Ala mutant (Schizosaccharomyces pombe, UniProt Q96WV5, R13A); test: biochemical; format: binding, S. pombe; settings: pH 6.5
T3 construct: strep-tag (C); made in house; host or cells: Expi293 cells
T3 sequence (Q96WV5 1-327 R13A limits assumed): T1 sequence (Q96WV5 1-327 R300A limits assumed) with R13A, A300R

[6] = biological target: clientized GST-S tail fusion, Thr1273Asp (SARS-CoV-2); test: pull-down
[7] = biological target: clientized GST-S tail fusion, Thr1273Glu (SARS-CoV-2); test: pull-down
[8] = biological target: amidated clientized Thr1273Glu S heptapeptide (SARS-CoV-2); test: BLI; […]; pH 6.5 ([…]; 25 °C; Octet RED96; […]
[9] = biological target: Thr1273Glu clientized S tail 21mer peptide (BLI) (SARS-CoV-2); test: BLI; […]; pH 6.5 ([…]; 25 °C; Octet RED96; […]
[10] = biological target: Thr1273Glu clientized S tail 21mer peptide (BLI) (SARS-CoV-2); test: BLI; pH 7
[11] = biological target: T4, S. cerevisiae β‘-COPI WD40 domain (β‘WD40), wild type (S. cerevisiae, UniProt P41811 1-301); test: BLI; […]; pH 6.5 ([…]; 25 °C; Octet RED96; […]; settings: both partners purified
T4 sequence: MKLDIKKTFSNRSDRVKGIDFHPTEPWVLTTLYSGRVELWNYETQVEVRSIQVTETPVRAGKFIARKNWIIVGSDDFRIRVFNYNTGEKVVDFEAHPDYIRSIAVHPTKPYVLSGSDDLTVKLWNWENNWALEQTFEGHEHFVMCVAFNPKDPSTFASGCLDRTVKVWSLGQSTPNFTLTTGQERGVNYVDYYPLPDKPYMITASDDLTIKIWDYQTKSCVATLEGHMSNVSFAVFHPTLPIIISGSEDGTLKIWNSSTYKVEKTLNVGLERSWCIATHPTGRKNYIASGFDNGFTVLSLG

With “αWD40 Arg13Ala mutant (domain or fragment)” the Kd [1] was 3000 nM, the koff [1] was 0.22 s⁻¹ and the kon [1] was 132000 M⁻¹ s⁻¹. For the same molecule, the Kd [2] was 8500 nM, the koff [2] was 0.38 s⁻¹ and the kon [2] was 148000 M⁻¹ s⁻¹.

For GVKLHYE [GVKLHYE], the koff [3] was 0.43 ± 0.003 s⁻¹, the koff [4] was 1.27 ± 0.03 s⁻¹ and the koff [5] was 0.22 ± 0.008 s⁻¹.

“αWD40 Arg300Ala mutant (domain or fragment)” was tested, and the Kd [1] was 4200 nM, the koff [1] was 0.43 s⁻¹ and the kon [1] was 137000 M⁻¹ s⁻¹. It also gave a Kd [2] of 3600 nM, a koff [2] of 0.81 s⁻¹ and a kon [2] of 360000 M⁻¹ s⁻¹.

Molecule “endogenous coatomer complex (mouse liver cytosol) (from UniProt Q8CIE6 1-1224; Q9JIF7 1-953; O55029 1-905; Q9QZE5 1-874; Q5XJY5 1-511; O89079 1-308; P61924 1-177)” has a fold binding over the Lys-x-Lys-x-xCT dibasic mutant [6] of 2 fold, a fold binding over the wild-type GST-S tail construct [6] of 17 fold and a fold binding over the Lys-x-Lys-x-xCT dibasic mutant [7] of 2 fold. It also gave a fold binding over the wild-type GST-S tail construct [7] of 17 fold.

Molecule “S. pombe α-COPI WD40 domain (αWD40), wild type (domain or fragment)” has a Kd [8] of 2300 nM, a Kd [9] of 100 nM and a Kd [10] of 100 nM.

Molecule GVKLHYT [GVKLHYT] has a koff [3] of 0.81 ± 0.007 s⁻¹ and a koff [5] of 0.38 ± 0.007 s⁻¹.

B1: clientized Thr1273Glu SARS-CoV-2 S tail heptapeptide (1267Gly-Val-Lys-Leu-His-Tyr-Glu1273) (peptide)
peptide: GVKLHYE
notes: also called GVKLHYE; clientized S heptapeptide
For B1, the Kd [11] was 2300 ± 230 nM, the koff [11] was 1.27 s⁻¹ and the kon [11] was 2.42e+06 M⁻¹ s⁻¹.

Reference: PMC10724246 (Nature Communications, 2023)
